B1: Far upstream element-binding protein 2, residues 142 to 214; numbered along this chain, Q92945 (parent)
chain: RTSMTEEYRVPDGMVGLIIGRGGEQINKIQQDSGCKVQISPDSGGLPERSVSLTGAPESVQKAKMMLDDIVSR

± gives the uncertainty stated by the source.

The variants in the series derive from B1. Description: abundance fitness (aPCA) (normalised: wild type 0, dead -1); higher = more abundant; growth selection in yeast, the domain comes from the species named. The following applies: Homo sapiens.
With RTSMTEEYRVPDGMVGLIIGRGGEIINKIQQDSGCKVQISPDSGGLPERSVSLTGAPESVQKAKMMLDDIVSR, the abundance fitness was -0.015 ± 0.11.

As to RTSMTEEYRVPDGMVGLIIGRGGEYINKIQQDSGCKVQISPDSGGLPERSVSLTGAPESVQKAKMMLDDIVSR, the abundance fitness is -0.06 ± 0.16. Take RTSMTEEYRVPDGMVGLIIGRGGEKINKIQQDSGCKVQISPDSGGLPERSVSLTGAPESVQKAKMMLDDIVSR: the abundance fitness is -0.158 ± 0.068.

Turning to RTSMTEEYRVPDGMVGLIIGRGGEPINKIQQDSGCKVQISPDSGGLPERSVSLTGAPESVQKAKMMLDDIVSR, the abundance fitness is -0.264 ± 0.052. Next, RTSMTEEYRVPDGMVGLIIGRGGEHINKIQQDSGCKVQISPDSGGLPERSVSLTGAPESVQKAKMMLDDIVSR: -0.256 ± 0.099.

With RTSMTEEYRVPDGMVGLIIGRGGEVINKIQQDSGCKVQISPDSGGLPERSVSLTGAPESVQKAKMMLDDIVSR, the abundance fitness was -0.019 ± 0.053. Next, RTSMTEEYRVPDGMVGLIIGRGGEEINKIQQDSGCKVQISPDSGGLPERSVSLTGAPESVQKAKMMLDDIVSR: 0.004 ± 0.053; RTSMTEEYRVPDGMVGLIIGRGGEAINKIQQDSGCKVQISPDSGGLPERSVSLTGAPESVQKAKMMLDDIVSR: -0.004 ± 0.043. The result for RTSMTEEYRVPDGMVGLIIGRGGETINKIQQDSGCKVQISPDSGGLPERSVSLTGAPESVQKAKMMLDDIVSR reads 0.022 ± 0.058; that for RTSMTEEYRVPDGMVGLIIGRGGESINKIQQDSGCKVQISPDSGGLPERSVSLTGAPESVQKAKMMLDDIVSR, -0.067 ± 0.05; that for RTSMTEEYRVPDGMVGLIIGRGGEFINKIQQDSGCKVQISPDSGGLPERSVSLTGAPESVQKAKMMLDDIVSR, -0.181 ± 0.13. In the case of RTSMTEEYRVPDGMVGLIIGRGGEWINKIQQDSGCKVQISPDSGGLPERSVSLTGAPESVQKAKMMLDDIVSR, the abundance fitness is -0.17 ± 0.076. The result for RTSMTEEYRVPDGMVGLIIGRGGECINKIQQDSGCKVQISPDSGGLPERSVSLTGAPESVQKAKMMLDDIVSR reads -0.099 ± 0.12.

In the case of RTSMTEEYRVPDGMVGLIIGRGGEGINKIQQDSGCKVQISPDSGGLPERSVSLTGAPESVQKAKMMLDDIVSR, the abundance fitness amounted to 0.005 ± 0.037. Next, RTSMTEEYRVPDGMVGLIIGRGGEMINKIQQDSGCKVQISPDSGGLPERSVSLTGAPESVQKAKMMLDDIVSR: -0.127 ± 0.095; RTSMTEEYRVPDGMVGLIIGRGGELINKIQQDSGCKVQISPDSGGLPERSVSLTGAPESVQKAKMMLDDIVSR: -0.039 ± 0.046; RTSMTEEYRVPDGMVGLIIGRAGEQINKIQQDSGCKVQISPDSGGLPERSVSLTGAPESVQKAKMMLDDIVSR: -0.126 ± 0.045. Next, RTSMTEEYRVPDGMVGLIIGREGEQINKIQQDSGCKVQISPDSGGLPERSVSLTGAPESVQKAKMMLDDIVSR: -0.071 ± 0.055.

With RTSMTEEYRVPDGMVGLIIGRIGEQINKIQQDSGCKVQISPDSGGLPERSVSLTGAPESVQKAKMMLDDIVSR, the abundance fitness is -0.34 ± 0.082. Next, RTSMTEEYRVPDGMVGLIIGRVGEQINKIQQDSGCKVQISPDSGGLPERSVSLTGAPESVQKAKMMLDDIVSR: -0.312 ± 0.047; RTSMTEEYRVPDGMVGLIIGRKGEQINKIQQDSGCKVQISPDSGGLPERSVSLTGAPESVQKAKMMLDDIVSR: -0.12 ± 0.07; RTSMTEEYRVPDGMVGLIIGRLGEQINKIQQDSGCKVQISPDSGGLPERSVSLTGAPESVQKAKMMLDDIVSR: -0.234 ± 0.044. The result for RTSMTEEYRVPDGMVGLIIGRSGEQINKIQQDSGCKVQISPDSGGLPERSVSLTGAPESVQKAKMMLDDIVSR reads -0.148 ± 0.047. The result for RTSMTEEYRVPDGMVGLIIGRMGEQINKIQQDSGCKVQISPDSGGLPERSVSLTGAPESVQKAKMMLDDIVSR reads -0.115 ± 0.062; that for RTSMTEEYRVPDGMVGLIIGRPGEQINKIQQDSGCKVQISPDSGGLPERSVSLTGAPESVQKAKMMLDDIVSR, -0.572 ± 0.056. Take RTSMTEEYRVPDGMVGLIIGRCGEQINKIQQDSGCKVQISPDSGGLPERSVSLTGAPESVQKAKMMLDDIVSR: the abundance fitness was -0.204 ± 0.057. The result for RTSMTEEYRVPDGMVGLIIGRWGEQINKIQQDSGCKVQISPDSGGLPERSVSLTGAPESVQKAKMMLDDIVSR reads -0.308 ± 0.051; that for RTSMTEEYRVPDGMVGLIIGRDGEQINKIQQDSGCKVQISPDSGGLPERSVSLTGAPESVQKAKMMLDDIVSR, -0.027 ± 0.066. RTSMTEEYRVPDGMVGLIIGRRGEQINKIQQDSGCKVQISPDSGGLPERSVSLTGAPESVQKAKMMLDDIVSR: the abundance fitness is -0.032 ± 0.039. The result for RTSMTEEYRVPDGMVGLIIGRTGEQINKIQQDSGCKVQISPDSGGLPERSVSLTGAPESVQKAKMMLDDIVSR reads -0.192 ± 0.06; that for RTSMTEEYRVPDGMVGLIIGRHGEQINKIQQDSGCKVQISPDSGGLPERSVSLTGAPESVQKAKMMLDDIVSR, -0.234 ± 0.084.

In the case of RTSMTEEYRVPDGMVGLIIGRYGEQINKIQQDSGCKVQISPDSGGLPERSVSLTGAPESVQKAKMMLDDIVSR, the abundance fitness is -0.226 ± 0.083.

Regarding RTSMTEEYRVPDGMVGLIIGRNGEQINKIQQDSGCKVQISPDSGGLPERSVSLTGAPESVQKAKMMLDDIVSR, the abundance fitness was -0.167 ± 0.1. The result for RTSMTEEYRVPDGMVGLIIGRQGEQINKIQQDSGCKVQISPDSGGLPERSVSLTGAPESVQKAKMMLDDIVSR reads -0.026 ± 0.055; that for RTSMTEEYRVPDGMVGLIIGTGGEQINKIQQDSGCKVQISPDSGGLPERSVSLTGAPESVQKAKMMLDDIVSR, -0.004 ± 0.043; that for RTSMTEEYRVPDGMVGLIIGVGGEQINKIQQDSGCKVQISPDSGGLPERSVSLTGAPESVQKAKMMLDDIVSR, -0.068 ± 0.037.

Regarding RTSMTEEYRVPDGMVGLIIGWGGEQINKIQQDSGCKVQISPDSGGLPERSVSLTGAPESVQKAKMMLDDIVSR, the abundance fitness was -0.353 ± 0.045.
